This is an account of results in EP0308499B1, “SUBSTRATE ASSISTED CATALYSIS” (GENENCOR INTERNATIONAL, INC., priority 1987, dated 1988).

Where a chain is given by its changes, count along the chain named. Numbers in names are those of the source. Numbered stars: 1 amine (or outer) side, 2 acyl side, 3 side chain; on linkers, the order of the positions; unused ones are H or OH. Peptide text beside a SMILES is read from it. * marks the point of attachment. pNA = O=[N+]([O-])c1ccc(N*)cc1; Suc = O=C(CCC(=O)[*:2])[*:1]

Data set [1] deals with T1, B. amyloliquefaciens subtilisin mutant Cys-24/Ala-64 (Ser-24→Cys/His-64→Ala) (Bacillus amyloliquefaciens, UniProt P00782, H171A/S131C).
T1 construct: The His-64→Ala mutation caused a severe reduction in secretion of mature subtilisin; made in house; host or cells: Bacillus subtilis BG2036, co-cultured with helper cells carrying active Ala-48→Glu subtilisin
T1 sequence (P00782 108-382 S131C/H171A): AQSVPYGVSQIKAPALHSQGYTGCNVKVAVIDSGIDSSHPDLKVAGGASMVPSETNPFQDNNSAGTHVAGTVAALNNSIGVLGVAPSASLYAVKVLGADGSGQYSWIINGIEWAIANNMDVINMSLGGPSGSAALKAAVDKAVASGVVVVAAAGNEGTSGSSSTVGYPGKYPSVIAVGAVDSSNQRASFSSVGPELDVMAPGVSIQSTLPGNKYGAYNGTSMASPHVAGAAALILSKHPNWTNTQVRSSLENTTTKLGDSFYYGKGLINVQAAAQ
Kind of data set: Kinetic analysis of hydrolysis of p-nitroanilide peptide substrates (release of ρ-nitroaniline, Eadie-Hofstee plot). The data set is classed as biochemical. How it is done:
(§1) The kinetic parameters for Cys-24 and Cys-24/Ala-64 were determined against the substrates N-succinyl-L-Phe-L-Ala-L-[X)-L-Phe-ρ-nitroanilide (abbreviated sFAXF-pNA), where X (P2 position) was Ala, Gln, or His (Table I). […] By comparison, the His-64→Ala mutation causes a drop of ∿10⁶ fold in kcat/Km against the Ala and Gln P2 substrates. Almost all of the decrease in catalytic efficiency is caused by a decreased kcat term (up to 10⁶ times), although smaller but significant increases appear in Km. […] Although the proportion of functional active sites in Cys-24/Ala-64 enzyme preparations could not be determined directly by such active site labeling, enzyme that was purified by additional native gel electrophoresis (Example 6) had identical kinetic parameters to Cys-24/Ala-64 described in Table V.

Data set [2] concerns the target β-lactamase, Serine-70 substituted with cysteine (thiol-containing β-lactamase) (Escherichia coli, UniProt P62593, S68C). The settings on record: cited from earlier work; for kcat: relative to that of a wild type enzyme.
Data set [3] deals with T1, B. amyloliquefaciens subtilisin mutant Cys-24/Ala-64 (Ser-24→Cys/His-64→Ala). Description: Inhibition by the active site reagent PMSF. The data set is classed as biochemical. The conditions noted are these: concentration not given. How it is done:
as §1
Several lines of evidence indicate that the activity we attribute to the Cys-24/Ala-64 enzyme is not the result of any other protease contamination. Firstly, the extreme substrate preference for His at the P2 position is unlike wild-type subtilisin or any known Bacillus protease. […] Finally, the kinetic values determined for Cys-24/Ala-64 that was additionally purified by native gel electrophoresis (Example 6) are essentially the same as these reported in Table V.

Substrate in data set [4]: C[C@H](NC(=O)[C@H](Cc1ccccc1)NC(=O)CCC(=O)O)C(=O)N[C@@H](Cc1c[nH]cn1)C(=O)N[C@@H](Cc1ccccc1)C(=O)Nc1ccc([N+](=O)[O-])cc1
Kind of data set: Kinetic analysis of hydrolysis of p-nitroanilide peptide substrates (release of ρ-nitroaniline, Eadie-Hofstee plot). It is filed as biochemical, B. amyloliquefaciens. The settings on record: other: 0.10 M Tris-HCl (pH 8.6), 10 mM DTT, 25±0.1°C, 25.0 °C. How it is done:
as §1

Substrate in data set [5]: C[C@H](NC(=O)[C@H](Cc1ccccc1)NC(=O)CCC(=O)O)C(=O)N[C@@H](CCC(N)=O)C(=O)N[C@@H](Cc1ccccc1)C(=O)Nc1ccc([N+](=O)[O-])cc1
The data set is described as above. The data set is classed as biochemical, B. amyloliquefaciens. The conditions noted are these: other: 0.10 M Tris-HCl (pH 8.6), 10 mM DTT, 25±0.1°C, 25.0 °C. As for the experimental part:
as §1

Substrate in data set [6]: C[C@H](NC(=O)[C@H](C)NC(=O)[C@H](Cc1ccccc1)NC(=O)CCC(=O)O)C(=O)N[C@@H](Cc1ccccc1)C(=O)Nc1ccc([N+](=O)[O-])cc1
Described as above. It is filed as biochemical, B. amyloliquefaciens. The conditions noted are these: other: 0.10 M Tris-HCl (pH 8.6), 10 mM DTT, 25±0.1°C, 25.0 °C. How it is done:
as §1

For `C[C@H](NC(=O)[C@H](Cc1ccccc1)NC(=O)CCC(=O)O)C(=O)N[C@@H](Cc1c[nH]cn1)C(=O)N[C@@H](Cc1ccccc1)C(=O)Nc1ccc([N+](=O)[O-])cc1` [His, N-succinyl-L-Phe-L-Ala-L-X-L-Phe-ρ-nitroanilide] (Suc-FAHF-pNA), the “catalytic efficiency below wild-type” value in data set [1] (kcat/Km compared with wild-type subtilisin) is 5,000 fold. Moreover, in data set [1] (pH 8.6, Table V data), the “kcat of the His P2 substrate larger than that of the Ala P2 substrate by a factor” value is recorded as 2,000 and the “kcat of the His P2 substrate larger than that of the Gln P2 substrate by a factor” value is 500.
What is called kcat is the number of substrate molecules converted per active site and unit of time at saturation. Regarding `CC1(C)S[C@@H]2[C@H](NC(=O)Cc3ccccc3)C(=O)N2[C@H]1C(=O)O` [benzyl penicillin], the kcat in data set [2] is given as 1-2%.
Broadly, the Km is the substrate concentration at which the rate is half of its maximum. As for `O=C(Cc1cccs1)N[C@@H]1C(=O)N2C(C(=O)O)=C(/C=C/c3ccc([N+](=O)[O-])cc3[N+](=O)[O-])CS[C@H]12` [nitrocefin], in data set [2] (relative to that of the wild type), the Km entry is “greater than 10 fold”.
`O=S(=O)(F)Cc1ccccc1` [PMSF, phenylmethylsulfonyl-fluoride]: in data set [3], the “inhibition by PMSF” value was “completely resistant to inhibition”.
Consider `CC1(C)S[C@@H]2[C@H](NC(=O)[C@H](N)c3ccccc3)C(=O)N2[C@H]1C(=O)O` [ampicillin], for which the kcat in data set [2] is recorded as 1-2%.

B1: B. amyloliquefaciens subtilisin, recombinant Cys-24 (Ser-24→Cys; kinetically essentially identical to wild-type) (Bacillus amyloliquefaciens; S131C) (protein)
chain: T1 sequence (P00782 108-382 S131C/H171A) with A64H
notes: Maturation of the primary subtilisin gene product (preprosubtilisin) to subtilisin in B. substilis is believed to be mediated by autoproteolysis; made in house
Take B1: the Km in data set [4] worked out at 23 µM; in data set [5], 39 µM; in data set [6], 10 µM. Also, the kcat amounted to 4.6 s⁻¹ in data set [4], 7.0 s⁻¹ in data set [5] and 8.1 s⁻¹ in data set [6]. The results for the kcat/Km in data set [4], in data set [5] and in data set [6] were 2.0 x 10^5 s^-1M^-1, 1.8 x 10^5 s^-1M^-1 and 8.0 x 10^5 s^-1M^-1, respectively.

B2: B. amyloliquefaciens subtilisin mutant Cys-24/Ala-64 (Ser-24→Cys/His-64→Ala) (Bacillus amyloliquefaciens; H171A/S131C) (protein)
chain: T1 sequence (P00782 108-382 S131C/H171A)
On to B2, for which, in data set [4] (in the presence of PMSF), the Km amounted to 380 µM, the kcat amounted to 0.016 s⁻¹ and the kcat/Km is given as 42 s^-1M^-1. For the same molecule, in data set [5] (in the presence of PMSF), the Km was 150 µM, the kcat was determined as 3e-05 s⁻¹ and the kcat/Km is on record as 0.20 s^-1M^-1. For the same molecule, in data set [6] (in the presence of PMSF), the Km turned out to be 32 µM, the kcat worked out at 8.1e-06 s⁻¹ and the kcat/Km is given as 0.25 s^-1M^-1.
